How the values were obtained:
rhesus IL-1beta = target: T1, rhesus IL-1beta (rhesus monkey, UniProt P79182)
T1 chain: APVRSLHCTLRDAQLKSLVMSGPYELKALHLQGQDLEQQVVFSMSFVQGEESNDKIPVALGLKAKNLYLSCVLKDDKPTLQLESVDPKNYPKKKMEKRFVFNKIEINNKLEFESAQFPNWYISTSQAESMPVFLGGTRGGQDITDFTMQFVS

mouse IL-1beta = target: T2, mouse IL-1beta (mouse, UniProt P10749); test: SPR, 8 nM
T2 chain: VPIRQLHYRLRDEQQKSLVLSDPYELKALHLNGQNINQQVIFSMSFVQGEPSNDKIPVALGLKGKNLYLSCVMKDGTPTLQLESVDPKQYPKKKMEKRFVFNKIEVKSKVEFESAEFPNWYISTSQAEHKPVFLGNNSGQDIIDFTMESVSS

rabbit IL-1beta = target: T3, rabbit IL-1beta (rabbit, UniProt P14628); test: SPR, 8 nM
T3 chain: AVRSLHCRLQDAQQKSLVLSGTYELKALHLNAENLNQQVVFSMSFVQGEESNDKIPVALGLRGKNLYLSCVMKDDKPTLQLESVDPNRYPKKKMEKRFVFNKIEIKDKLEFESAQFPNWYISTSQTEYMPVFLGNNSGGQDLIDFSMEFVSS

rat IL-1beta = target: T4, rat IL-1beta (rat, UniProt Q63264); test: SPR, 8 nM
T4 chain: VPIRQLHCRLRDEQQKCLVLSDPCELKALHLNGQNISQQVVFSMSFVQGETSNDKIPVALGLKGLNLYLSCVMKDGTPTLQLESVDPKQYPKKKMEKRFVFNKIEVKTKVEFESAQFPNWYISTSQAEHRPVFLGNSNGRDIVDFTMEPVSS

human IL-1Ra = human IL-1Ra (human, UniProt P18510); test: SPR, 8 nM

Measured: binding result

B1: ACZ885 (antibody, V domains shown)
VH: QVQLVESGGGVVQPGRSLRLSCAASGFTFSVYGMNWVRQAPGKGLEWVAIIWYDGDNQYYADSVKGRFTISRDNSKNTLYLQMNGLRAEDTAVYYCARDLRTGPFDYWGQGTLVTVSS
VL: EIVLTQSPDFQSVTPKEKVTITCRASQSIGSSLHWYQQKPDQSPKLLIKYASQSFSGVPSRFSGSGSGTDFTLTINSLEAEDAAAYYCHQSSSLPFTFGPGTKVDIK
no binding: all assays above

From patent publication US7446175 (dated 2008)
